Measured values published in FireProtDB (doi:10.1021/bi972394l).
Several values for one entry are separate records, joined by “and”; a condition that tells them apart may be missing. Identical values can stand only once.

Settings: Homo sapiens; pH 7.8; Thermal; DSC; potassium phosphate 2 mM; transition: 2; reversible: Yes; whole UniProt chain shown

B1: Superoxide dismutase [Mn], mitochondrial wild type, P04179 (protein)
chain: MLSRAVCGTSRQLAPVLGYLGSRQKHSLPDLPYDYGALEPHINAQIMQLHHSKHHAAYVNNLNVTEEKYQEALAKGDVTAQIALQPALKFNGGGHINHSIFWTNLSPNGGGEPKGELLEAIKRDFGSFDKFKEKLTAASVGVQGSGWGWLGFNKERGHLQIAACPNQDPLQGTTGLIPLLGIDVWEHAYYLQYKNVRPDYLKAIWNVINWENVTERYMACKK
unfolding enthalpy (calorimetric): 142 kcal/mol and 90.6 kcal/mol
